Article PMC6038053, “Structural and Functional Insights Into Lysostaphin–Substrate Interaction” (Frontiers in Molecular Biosciences, 2018)
“Also recorded” adds a separate entry of the source. Read-outs that look alike come from different tables or passages of the source. Non-standard residues stand in square brackets, D forms with d. Residues, ends and D or L forms follow the SMILES beside them.

Columns and labels:
lysostaphin CWT domain = target: T1, lysostaphin CWT domain (Staphylococcus simulans, UniProt P10547); assay type: binding
T1 construct: DNA encoding the CWT domain (residues 402-493) was amplified; GST (from the pGEX-2T vector); made in house; host or cells: E. coli BL21 (DE3)
Method: The pentaglycine binding site on the CWT domain was determined by comparing the ^1H, ^15N, and ^1H, ^13C HSQC spectra of full-length lysostaphin and CWT domain acquired in the presence and absence of a large amount, ~170 molar excess, of KGGGGG and GGGGGK hexapeptides (Sigma-Aldrich). […] CSPs, calculated as Δδ = (ΔδH^2+(0.154 × ΔδN)^2)^1/2, were plotted as a function of the molar ratio of titrated ligand to CWT domain. Dissociation constants for individual residues were obtained by nonlinear least squares fitting, as implemented in the program xcrvfit (www.bionmr.ualberta.ca/bds/software/xcrvfit). Site-specific dissociation constants were calculated as averages of dissociation constants of individual residues within the site. In all binding site studies protein to zinc concentration ratio was 1:1.

[1] = effect of presence of lysine, relative to pentaglycine
[2] = Pentaglycine cleavage by lysostaphin monitored by 1H NMR; assay type: biochemical; details: for Relative activity: PBS pH 7.2, 21 h, 37 °C
Method: Pentaglycine cleavage by lysostaphin was monitored by ^1H NMR as described previously (Raulinaitis et al., [2017a]). Reactions took place in phosphate buffer saline (PBS), pH 7.2, with >90% D2O by volume as a solvent and final volumes were 600 μL. Initial pentaglycine (Sigma-Aldrich) and lysostaphin concentrations were 1 mM and 2.25 μM, respectively. Metal ions (ZnCl2, CoCl2, CuCl2, and MnCl2) were added as needed. Residual activity of lysostaphin “apo” form was taken into account in activity calculations. Measurements were carried out by using a Bruker Avance III 600 MHz spectrometer, equipped with a QCI ^1H/^13C/^15N/^31P cryoprobe and a SampleJet automated sample changer. The preheater of the sample changer was used for sample incubation when product formation was measured as a time series with 3-h intervals for 48 h. Single time-point samples were incubated in an incubator for 21 h and reactions were quenched by heating at 90°C for 15 min before proton spectra acquisitions at 37°C. The data were processed with Bruker TopSpin 3.5 software.
Proton NMR allows for direct and real-time reaction monitoring devoid of intricacies of cellular suspension (Raulinaitis et al., [2017a]). Scission of pentaglycine by lysostaphin was monitored for 48 h by ^1H NMR and under conditions of this study its catalytic rate appeared to be limited only by saturation with the substrate (Supplementary Figure 4). The substrate turnover rate by the enzyme in the first 3 h of the reaction is estimated to be in the order of 0.006 s^−1.
Figure 4 Lysostaphin activity dependence on zinc, cobalt, copper and manganese cofactors. Lysostaphin was incubated with pentaglycine (2.25 μM and 1 mM concentrations, respectively) in PBS buffer, pH 7.2, for 21 h at 37°C. Total cofactor ratios to protein were 1:1 and 3:1, EDTA excess was 70-fold. […] Activity was adjusted to one zinc-bound lysostaphin as 100% reference point. Bars represent standard error of the mean (S.E.M) of at least three independent measurements. TEXT PRINTED IN THE PICTURE: 1 Zn: Relative activity, %: 100.0 | 3 Zn: Relative activity, %: 79.8 | 1 Cu: Relative activity, %: 96.4 | 3 Cu: Relative activity, %: 183.3 | 1 Mn: Relative activity, %: 38.8 | 3 Mn: Relative activity, %: 40.3 | 1 Co: Relative activity, %: 79.1 | 100 EDTA: Relative activity, %: 12.8

[3] = system: CWT binding to S. aureus cells; design: method as in Gründling and Schneewind, 2006; details: excess of pentaglycine; ref Gründling and Schneewind, 2006; cited from earlier work
[4] = target: T2, lysostaphin cell wall targeting (CWT) domain (residues 402-493) (Staphylococcus simulans, UniProt P10547 402-493); assay: NMR titration; 1H,15N and 1H,13C HSQC spectra of the CWT domain with and without ~170 molar excess of hexapeptide; chemical shift perturbations; protein to zinc 1:1; details: both partners purified
T2 construct: also called targeting domain; SH3b domain; source: E. coli BL21 (DE3), purified (Glutathione Sepharose, thrombin release, gel filtration on Superdex 75)

[5] = ~80 molar excess of the peptide, data not shown

T1 sequence (P10547 402-493): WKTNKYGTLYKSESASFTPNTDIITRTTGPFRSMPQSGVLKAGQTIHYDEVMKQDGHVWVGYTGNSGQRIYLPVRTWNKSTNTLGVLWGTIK
T2 sequence (P10547 402-493): as above

C[C@H](N)C(=O)N[C@H](CCC(=O)O)C(=O)N[C@@H](CCCCN)C(=O)NCC(=O)NCC(=O)NCC(=O)NCC(=O)NCC(=O)N[C@@H](C)C(=O)N[C@H](CCC(=O)O)C(=O)N[C@@H](CCCCN)C(=O)N[C@H](C)C(=O)O (H-A[dE]KGGGGGA[dE]K[dA]-OH; N-terminus and C-terminus assumed)
CSPs (lysostaphin CWT domain; ~24 molar excess): significant CSPs

GGGGGK [G5K]
Largest peak shifts, Δδ (CSP) (lysostaphin CWT domain; residues N405, Y411, G430-F432, V452, M453, Y472, ~170 molar excess): ≥ 0.10 ppm
solubility [1]: significantly enhanced the solubility

KGGGGG [KG5]
solubility [1]: significantly enhanced the solubility

Lysostaphin: S. simulans zinc-dependent endopeptidase with N-terminal catalytic domain and C-terminal cell wall targeting domain
Relative activity ([2]; 1 Co (1:1 cofactor to protein), adjusted to one zinc-bound lysostaphin = 100%, 2.25 μM lysostaphin, 1 mM pentaglycine, n ≥ 3): 79.1%
Relative activity ([2]; 1 Cu (1:1 cofactor to protein), adjusted to one zinc-bound lysostaphin = 100%, 2.25 μM lysostaphin, 1 mM pentaglycine, n ≥ 3): 96.4%
Relative activity ([2]; 1 Mn (1:1 cofactor to protein), adjusted to one zinc-bound lysostaphin = 100%, 2.25 μM lysostaphin, 1 mM pentaglycine, n ≥ 3): 38.8%
Relative activity ([2]; 1 Zn (1:1 cofactor to protein), reference point 100%, 2.25 μM lysostaphin, 1 mM pentaglycine, at least three independent measurements): 100.0%
Relative activity ([2]; 3 Cu (3:1 cofactor to protein), adjusted to one zinc-bound lysostaphin = 100%, 2.25 μM lysostaphin, 1 mM pentaglycine, n ≥ 3): 183.3%
Relative activity ([2]; 3 Mn (3:1 cofactor to protein), adjusted to one zinc-bound lysostaphin = 100%, 2.25 μM lysostaphin, 1 mM pentaglycine, n ≥ 3): 40.3%
Relative activity ([2]; 3 Zn (3:1 cofactor to protein), adjusted to one zinc-bound lysostaphin = 100%, 2.25 μM lysostaphin, 1 mM pentaglycine, n ≥ 3): 79.8%
Relative activity ([2]; 100 EDTA (EDTA excess, residual activity), adjusted to one zinc-bound lysostaphin = 100%, 2.25 μM lysostaphin, 1 mM pentaglycine, n ≥ 3): 12.8%
change of catalytic activity ([2]; Cu^2+ in excess): activity increases
cofactor suitability for catalytic activity ([2]; Mn^2+): weak cofactor
change of catalytic activity ([2]; excess of zinc (second zinc bound by catalytic histidines H329 and H360)): reduces lysostaphin pentaglycine cleaving activity; also recorded: partial inhibition
substrate turnover rate ([2]; first 3 h of the reaction, 1 mM pentaglycine, 2.25 μM lysostaphin, PBS pH 7.2, 37 °C, 1H NMR every 3 h for 48 h, estimated): ~0.006 s⁻¹
cofactor suitability for catalytic activity ([2]; metal cations Zn^2+, Co^2+, and Cu^2+): suitable cofactors

N-acetylmuramyl-L-alanyl-D-isoglutamine hydrate [N-acetylmuramyl-L-A-D-γ-Q hydrate]
CSPs (lysostaphin CWT domain; [5]): very small CSPs
affinity of CWT domain (lysostaphin CWT domain; [5]): no significant affinity

pentaglycine
affinity of targeting (CWT) domain in words (lysostaphin CWT domain; abstract / conclusions summary): very low affinity; also recorded: extremely low affinity
blocking of CWT binding to S. aureus cells [3]: cannot be blocked

B1: GGGGGK hexapeptide (peptide)
peptide: GGGGGK
notes: also called G5K; source: bought: Sigma-Aldrich
Kd [4]: > 10 mM
